Data on one substance can be found in US20180094059A1.

The assay has as its target TRAIL receptors (TRAILR) on tumor cells. As to the kind of experiment: flow cytometry, Colo205 cells.

Sequence of scTRAIL3-… (P50591 other isoform, or with tags, fused parts or gaps): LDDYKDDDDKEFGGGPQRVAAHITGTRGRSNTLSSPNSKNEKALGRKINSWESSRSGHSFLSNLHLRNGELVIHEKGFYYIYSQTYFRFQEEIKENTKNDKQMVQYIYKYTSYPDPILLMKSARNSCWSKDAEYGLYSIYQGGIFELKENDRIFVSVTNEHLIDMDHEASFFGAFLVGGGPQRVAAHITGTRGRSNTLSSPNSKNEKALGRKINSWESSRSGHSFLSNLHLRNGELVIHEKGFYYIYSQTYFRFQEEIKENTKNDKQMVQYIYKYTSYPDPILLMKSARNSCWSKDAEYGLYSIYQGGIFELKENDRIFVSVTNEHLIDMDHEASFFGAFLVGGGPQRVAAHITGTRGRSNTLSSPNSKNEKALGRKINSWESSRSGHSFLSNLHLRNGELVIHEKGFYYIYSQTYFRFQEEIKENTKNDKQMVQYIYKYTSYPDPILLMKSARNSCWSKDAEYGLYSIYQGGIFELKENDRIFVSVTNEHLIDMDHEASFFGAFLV

With “scTRAIL3-… (from UniProt P50591 118-281) (ligand)”, the EC50 turned out to be 5.67 nM.
